Columns and labels:
[1] = tested on: HeLa Kyoto; assay: solubility in G1/S (NP-40 vs SDS abundance) (log2 ratio); higher = more soluble; settings: cell cycle stage: G1/S
[2] = tested on: HeLa Kyoto; assay: solubility change mitosis vs G1/S (difference of NP-40 vs SDS log2 ratios) (log2 ratio difference); higher = more soluble in mitosis
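Wherever solubility change mitosis vs G1/S (difference of NP-40 vs SDS log2 ratios) is given: synchronized HeLa Kyoto cells (double thymidine block for G1/S, nocodazole release for mitosis), protein amounts in NP-40 versus SDS lysates quantified by mass spectrometry, three biological replicates.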
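Wherever solubility in G1/S (NP-40 vs SDS abundance) is given: HeLa Kyoto cells arrested at G1/S by double thymidine block, proteins quantified by TMT10plex mass spectrometry in mild NP-40 versus SDS extracts, three biological replicates.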

Sequence	solubility in G1/S (log2) [1]	solubility change mitosis (log2) [2]
MCCEKWSRVAEMFLFIEEREDCKILCLCSRAFVEDRKLYNLGLKGYYIRDSGNNSGDQATEEEEGGYSCGTAESHDSKGIGLDESELDSEAELMRSMGLPLQFGRITAHKDFEVSMNTRNKVKIKKKKHQKKYLDEIVQESWRKEYEEDDILASDDPSSIEQYENTRTYELQSKKDTETENPPVENTLSPKLEITEKWEKYWNEYGGGLLWQSWQEKHPGQALSSEPWNFPDTKEEWEQHYSQLYWYYLEQFQYWEAQGWTFDASQSCDTDTYTSKTEADDKNDEKCMKVDLVSFPSSPIMVDNDSSGTSDKDHSEILDGISNIKLNSEEVTQSQLDSCTSHDGHQQLSEVSSKRECPASGQSEPRNGGTNEESNSSGNTNTDPPAEDSQKSSGANTSKDRPHASGTDGDESEEDPPEHKPSKLKRSHELDIDENPASDFDDSGSLLGFKYGSGQKYGGIPNFSHRQVRYLEKNVKLKSKYLDMRRQIKMKNKHIFFTKESEKPFFKKSKILSKVEKFLTWVNKPMDEEASQESSSHDNVHDASTSSDSEEQDMSVKKGDDLLETNNPEPEKCQSVSSAGELETENYERDSLLATVPDEQDCVTQEVPDSRQAETEAEVKKKKNKKKNKKVNGLPPEIAAVPELAKYWAQRYRLFSRFDDGIKLDREGWFSVTPEKIAEHIAGRVSQSFKCDVVVDAFCGVGGNTIQFALTGMRVIAIDIDPVKIALARNNAEVYGIADKIEFICGDFLLLASFLKADVVFLSPPWGGPDYATAETFDIRTMMSPDGFEIFRLSKKITNNIVYFLPRNADIDQVASLAGPGGQVEIEQNFLNNKLKTITAYFGDLIRRPASET [TGS1]	0.102	0.247
MDDIADRMRMDAGEVTLVNHNSVFKTHLLPQTGFPEDQLSLSDQQILSSRQGHLDRSFTCSTRSAAYNPSYYSDNPSSDSFLGSGDLRTFGQSANGQWRNSTPSSSSSLQKSRNSRSLYLETRKTSSGLSNSFAGKSNHHCHVSAYEKSFPIKPVPSPSWSGSCRRSLLSPKKTQRRHVSTAEETVQEEEREIYRQLLQMVTGKQFTIAKPTTHFPLHLSRCLSSSKNTLKDSLFKNGNSCASQIIGSDTSSSGSASILTNQEQLSHSVYSLSSYTPDVAFGSKDSGTLHHPHHHHSVPHQPDNLAASNTQSEGSDSVILLKVKDSQTPTPSSTFFQAELWIKELTSVYDSRARERLRQIEEQKALALQLQNQRLQEREHSVHDSVELHLRVPLEKEIPVTVVQETQKKGHKLTDSEDEFPEITEEMEKEIKNVFRNGNQDEVLSEAFRLTITRKDIQTLNHLNWLNDEIINFYMNMLMERSKEKGLPSVHAFNTFFFTKLKTAGYQAVKRWTKKVDVFSVDILLVPIHLGVHWCLAVVDFRKKNITYYDSMGGINNEACRILLQYLKQESIDKKRKEFDTNGWQLFSKKSQEIPQQMNGSDCGMFACKYADCITKDRPINFTQQHMPYFRKRMVWEILHRKLL [SENP1]	-0.531	0.402
MDEDEFELQPQEPNSFFDGIGADATHMDGDQIVVEIQEAVFVSNIVDSDITVHNFVPDDPDSVVIQDVVEDVVIEEDVQCSDILEEADVSENVIIPEQVLDSDVTEEVSLPHCTVPDDVLASDITSTSMSMPEHVLTSESMHVCDIGHVEHMVHDSVVEAEIITDPLTSDIVSEEVLVADCAPEAVIDASGISVDQQDNDKASCEDYLMISLDDAGKIEHDGSTGVTIDAESEMDPCKVDSTCPEVIKVYIFKADPGEDDLGGTVDIVESEPENDHGVELLDQNSSIRVPREKMVYMTVNDSQQEDEDLNVAEIADEVYMEVIVGEEDAAVAAAAAAVHEQQIDEDEMKTFVPIAWAAAYGNNSDGIENRNGTASALLHIDESAGLGRLAKQKPKKKRRPDSRQYQTAIIIGPDGHPLTVYPCMICGKKFKSRGFLKRHMKNHPEHLAKKKYHCTDCDYTTNKKISLHNHLESHKLTSKAEKAIECDECGKHFSHAGALFTHKMVHKEKGANKMHKCKFCEYETAEQGLLNRHLLAVHSKNFPHICVECGKGFRHPSELRKHMRIHTGEKPYQCQYCEYRSADSSNLKTHIKTKHSKEMPFKCDICLLTFSDTKEVQQHTLVHQESKTHQCLHCDHKSSNSSDLKRHVISVHTKDYPHKCEMCEKGFHRPSELKKHVAVHKGKKMHQCRHCDFKIADPFVLSRHILSVHTKDLPFRCKRCRKGFRQQNELKKHMKTHSGRKVYQCEYCEYSTTDASGFKRHVISIHTKDYPHRCEYCKKGFRRPSEKNQHIMRHHKEVGLP [ZFY]	-0.668	0.257
MDEQPRLMHSHAGVGMAGHPGLSQHLQDGAGGTEGEGGRKQDIGDILQQIMTITDQSLDEAQARKHALNCHRMKPALFNVLCEIKEKTVLSIRGAQEEEPTDPQLMRLDNMLLAEGVAGPEKGGGSAAAAAAAAASGGAGSDNSVEHSDYRAKLSQIRQIYHTELEKYEQACNEFTTHVMNLLREQSRTRPISPKEIERMVSIIHRKFSSIQMQLKQSTCEAVMILRSRFLDARRKRRNFNKQATEILNEYFYSHLSNPYPSEEAKEELAKKCGITVSQVSNWFGNKRIRYKKNIGKFQEEANIYAAKTAVTATNVSAHGSQANSPSTPNSAGSSSSFNMSNSGDLFMSVQSLNGDSYQGAQVGANVQSQVDTLRHVISQTGGYSDGLAASQMYSPQGISANGGWQDATTPSSVTSPTEGPGSVHSDTSN [PBX1]	0.177	0.0731
MDGTEGSAGQPGPAERSHRSSVSSVGARAADVLVYLADDTVVPLAVENLPSLSAHELHRAVREVLQLPDIALDVFALWLVSPLLEVQLKPKHQPYKLGRQWPELLLRFTSAPDDDVAMDEPFLQFRRNVFFPKRRELQIHDEEVLRLLYEEAKGNVLAARYPCDVEDCEALGALVCRVQLGPYQPGRPAACDLREKLDSFLPAHLCKRGQSLFAALRGRGARAGPGEQGLLNAYRQVQEVSSDGGCEAALGTHYRAYLLKCHELPFYGCAFFHGEVDKPAQGFLHRGGRKPVSVAISLEGVHVIDSREKHVLLGLRFQELSWDHTSPEEEEPILWLEFDGDSEGTPVNKLLKIYSKQAELMSSLIEYCIELSQAAEPAGPQDSATGSPSDPSSSLAPVQRPKLRRQGSVVSSRIQHLSTIDYVEDGKGIRRVKPKRTTSFFSRQLSLGQGSYTVVQPGDSLEQG [FRMD8]	0.248	-0.0705
MDILKSEILRKRQLVEDRNLLVENKKYFKRSELAKKEEEAYFERCGYKIQPKEEDQKPLTSSNPVLELELAEEKLPMTLSRQEVIRRLRERGEPIRLFGETDYDAFQRLRKIEILTPEVNKGLRNDLKAALDKIDQQYLNEIVGGQEPGEEDTQNDLKVHEENTTIEELEALGESLGKGDDHKDMDIITKFLKFLLGVWAKELNAREDYVKRSVQGKLNSATQKQTESYLRPLFRKLRKRNLPADIKESITDIIKFMLQREYVKANDAYLQMAIGNAPWPIGVTMVGIHARTGREKIFSKHVAHVLNDETQRKYIQGLKRLMTICQKHFPTDPSKCVEYNAL [PRPF18]	0.178	0.09
MDSSIHLSSLISRHDDEATRTSTSEGLEEGEVEGETLLIVESEDQASVDLSHDQSGDSLNSDEGDVSWMEEQLSYFCDKCQKWIPASQLREQLSYLKGDNFFRFTCSDCSADGKEQYERLKLTWQQVVMLAMYNLSLEGSGRQGYFRWKEDICAFIEKHWTFLLGNRKKTSTWWSTVAGCLSVGSPMYFRSGAQEFGEPGWWKLVHNKPPTMKPEGEKLSASTLKIKAASKPTLDPIITVEGLRKRASRNPVESAMELKEKRSRTQEAKDIRRAQKEAAGFLDRSTSSTPVKFISRGRRPDVILEKGEVIDFSSLSSSDRTPLTSPSPSPSLDFSAPGTPASHSATPSLLSEADLIPDVMPPQALFHDDDEMEGDGVIDPGMEYVPPPAGSVASGPVVGVRKKVRGPEQIKQEVESEEEKPDRMDIDSEDTDSNTSLQTRAREKRKPQLEKDTKPKEPRYTPVSIYEEKLLLKRLEACPGAVAMTPEARRLKRKLIVRQAKRDRGLPLFDLDQVVNAALLLVDGIYGAKEGGISRLPAGQATYRTTCQDFRILDRYQTSLPSRKGFRHQTTKFLYRLVGSEDMAVDQSIVSPYTSRILKPYIRRDYETKPPKLQLLSQIRSHLHRSDPHWTPEPDAPLDYCYVRPNHIPTINSMCQEFFWPGIDLSECLQYPDFSVVVLYKKVIIAFGFMVPDVKYNEAYISFLFVHPEWRRAGIATFMIYHLIQTCMGKDVTLHVSASNPAMLLYQKFGFKTEEYVLDFYDKYYPLESTECKHAFFLRLRR [CSRP2BP]	0.391	0.153

Reference: the supplement of paper PMC5998384
